Article doi:10.1101/2022.05.04.490663 (bioRxiv, 2022)

Assays:
[1] = biological target: T1, Spt6 (239-1451), untagged (S. cerevisiae, UniProt P23615 239-1451); experiment: fluorescence polarisation
T1 sequence (looked up): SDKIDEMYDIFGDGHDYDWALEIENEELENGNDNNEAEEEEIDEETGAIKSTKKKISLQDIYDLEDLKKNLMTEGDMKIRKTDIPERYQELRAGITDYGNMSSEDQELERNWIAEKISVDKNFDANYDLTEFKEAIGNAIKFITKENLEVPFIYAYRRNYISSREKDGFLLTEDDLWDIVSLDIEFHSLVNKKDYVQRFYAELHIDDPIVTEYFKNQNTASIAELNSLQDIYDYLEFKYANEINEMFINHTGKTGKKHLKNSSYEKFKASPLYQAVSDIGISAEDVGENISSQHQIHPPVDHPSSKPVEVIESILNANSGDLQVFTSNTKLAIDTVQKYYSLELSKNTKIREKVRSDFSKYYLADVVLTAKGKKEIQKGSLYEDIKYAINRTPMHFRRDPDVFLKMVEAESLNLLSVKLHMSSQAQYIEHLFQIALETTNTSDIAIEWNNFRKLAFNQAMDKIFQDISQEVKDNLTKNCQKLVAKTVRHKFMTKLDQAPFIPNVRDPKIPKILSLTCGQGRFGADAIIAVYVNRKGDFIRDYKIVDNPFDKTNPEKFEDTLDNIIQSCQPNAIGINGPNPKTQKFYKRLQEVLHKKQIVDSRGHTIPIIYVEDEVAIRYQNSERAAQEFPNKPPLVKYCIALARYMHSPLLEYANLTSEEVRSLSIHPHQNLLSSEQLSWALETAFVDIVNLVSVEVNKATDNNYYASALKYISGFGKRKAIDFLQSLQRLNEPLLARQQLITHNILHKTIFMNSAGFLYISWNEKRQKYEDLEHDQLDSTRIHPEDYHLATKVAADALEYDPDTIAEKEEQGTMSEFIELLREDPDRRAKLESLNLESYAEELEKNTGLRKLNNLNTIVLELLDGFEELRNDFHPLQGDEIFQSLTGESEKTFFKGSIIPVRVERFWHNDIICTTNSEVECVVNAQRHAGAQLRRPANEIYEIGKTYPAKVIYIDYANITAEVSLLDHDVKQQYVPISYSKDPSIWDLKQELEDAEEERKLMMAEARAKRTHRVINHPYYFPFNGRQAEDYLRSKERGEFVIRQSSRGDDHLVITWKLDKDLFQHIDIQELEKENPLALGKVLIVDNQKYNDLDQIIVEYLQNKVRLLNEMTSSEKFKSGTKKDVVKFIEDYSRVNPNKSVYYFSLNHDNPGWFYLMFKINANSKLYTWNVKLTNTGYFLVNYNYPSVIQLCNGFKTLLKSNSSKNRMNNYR

[2] = biological target: T2, 10xHis-mRuby2-Spt6 (239-1451) (S. cerevisiae, UniProt P23615 239-1451); experiment: native gel or EMSA
T2 sequence (looked up): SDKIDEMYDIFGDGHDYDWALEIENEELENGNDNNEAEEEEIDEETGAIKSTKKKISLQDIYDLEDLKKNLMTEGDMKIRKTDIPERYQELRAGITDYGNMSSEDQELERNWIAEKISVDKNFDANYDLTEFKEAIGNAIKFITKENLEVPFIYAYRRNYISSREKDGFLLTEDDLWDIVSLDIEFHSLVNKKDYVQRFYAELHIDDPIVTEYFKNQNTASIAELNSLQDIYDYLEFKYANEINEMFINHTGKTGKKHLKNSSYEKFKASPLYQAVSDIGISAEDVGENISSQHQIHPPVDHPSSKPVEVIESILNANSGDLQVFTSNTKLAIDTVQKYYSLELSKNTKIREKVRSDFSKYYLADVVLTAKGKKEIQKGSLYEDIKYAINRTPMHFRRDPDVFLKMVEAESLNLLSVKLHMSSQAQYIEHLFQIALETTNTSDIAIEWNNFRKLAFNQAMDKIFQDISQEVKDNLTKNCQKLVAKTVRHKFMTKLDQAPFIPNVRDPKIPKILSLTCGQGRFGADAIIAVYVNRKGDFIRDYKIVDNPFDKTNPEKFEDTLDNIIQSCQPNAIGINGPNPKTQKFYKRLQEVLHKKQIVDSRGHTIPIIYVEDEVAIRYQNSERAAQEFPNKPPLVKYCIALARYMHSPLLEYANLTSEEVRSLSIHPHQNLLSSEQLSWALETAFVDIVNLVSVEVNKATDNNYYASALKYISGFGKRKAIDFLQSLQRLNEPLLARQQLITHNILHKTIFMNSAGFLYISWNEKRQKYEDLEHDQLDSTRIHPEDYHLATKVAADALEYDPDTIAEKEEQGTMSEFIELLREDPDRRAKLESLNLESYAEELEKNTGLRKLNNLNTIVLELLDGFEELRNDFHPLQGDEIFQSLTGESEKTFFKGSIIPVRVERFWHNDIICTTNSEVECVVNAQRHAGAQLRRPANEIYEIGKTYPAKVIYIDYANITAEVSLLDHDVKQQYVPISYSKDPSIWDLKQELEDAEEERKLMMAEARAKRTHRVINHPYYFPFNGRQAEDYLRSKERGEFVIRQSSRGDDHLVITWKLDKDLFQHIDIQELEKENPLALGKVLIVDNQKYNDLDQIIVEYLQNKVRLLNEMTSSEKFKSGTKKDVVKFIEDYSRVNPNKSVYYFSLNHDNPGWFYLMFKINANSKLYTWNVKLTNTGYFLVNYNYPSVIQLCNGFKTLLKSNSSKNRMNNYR

B1: 10xHis-mClover-Cdc73 (full-length Cdc73) (natural protein, S. cerevisiae, UniProt Q06697 1-393, looked up)
chain: MANSLDRLREHLKNGDKLVLKNNEGQSTDDITKATMVETLSSDGSTQDSFPLNEETEIEIDGSLVQLRIIVHCWMNKDSSAADYLADCQNKQLTNVSFLQRTDLINWLSGNTESSQYLKAPGQKGETSDKVDIENKTLAGELSTVKSTTSASLENDSEVSDPVVVETMKHERILVDHNSALRGAKPINFGYLIKDAELKLVQSIKGSLRGSKLPPGHKGAHGRISKTNGSSGGPRKDPIILIPSAASSILTVANIKQFLLESKYVNPRNLPSVPNGLVNIEKNFERISRPIRFIIVDNTRMFTKPEYWDRVVAIFTTGHTWQFNNYQWNSPQELFQRCKGYYFHFAGDSVPQHVQQWNVEKVELDKNKRFKDVEVVRYFWHSLEKELISRGYR
[1]
  Kd: 770 nM
[2]
  Kd: ~320 nM

B2: 10xHis-mClover-Cdc73 with the W321A substitution (natural protein, S. cerevisiae, UniProt Q06697 1-393, looked up)
chain: MANSLDRLREHLKNGDKLVLKNNEGQSTDDITKATMVETLSSDGSTQDSFPLNEETEIEIDGSLVQLRIIVHCWMNKDSSAADYLADCQNKQLTNVSFLQRTDLINWLSGNTESSQYLKAPGQKGETSDKVDIENKTLAGELSTVKSTTSASLENDSEVSDPVVVETMKHERILVDHNSALRGAKPINFGYLIKDAELKLVQSIKGSLRGSKLPPGHKGAHGRISKTNGSSGGPRKDPIILIPSAASSILTVANIKQFLLESKYVNPRNLPSVPNGLVNIEKNFERISRPIRFIIVDNTRMFTKPEYWDRVVAIFTTGHTAQFNNYQWNSPQELFQRCKGYYFHFAGDSVPQHVQQWNVEKVELDKNKRFKDVEVVRYFWHSLEKELISRGYR
[2]
  binding result: binds
